Patent US20100260668A1 (published 2010)
Blank lines part the entries; values can stand above or below the binder they belong to.

Experiments:
[1] = target: T1, VEGF (VEGF 1-165 aa, R&D Systems 293-VE-010) (UniProt P15692 27-191); experiment: Direct bind ELISA, VEGF coated on plate; VEGF domain C-term., HC long/LC long
T1 construct: bought reagent; also called vascular endothelial growth factor

[2] = target: T1, VEGF (VEGF 1-165 aa, R&D Systems …); experiment: Direct bind ELISA, VEGF coated on plate; VEGF domain N-term., HC short/LC short
[3] = target: NRP1 (Neuropilin-1 Npn-1-His tag) (UniProt O14786-2 22-644); experiment: SPR (Biacore); parent antibody
recombinant human HGF = target: T2, recombinant human HGF (human, UniProt P14210 32-728); experiment: competition ELISA: DVD-Ig co-incubated with 2 nM soluble c-Met Fc on coated HGF (competitor c-Met Fc)
T2 construct: The target there is entered as this HGF; also called hepatocyte growth factor
T2 sequence (P14210 32-728 limits assumed): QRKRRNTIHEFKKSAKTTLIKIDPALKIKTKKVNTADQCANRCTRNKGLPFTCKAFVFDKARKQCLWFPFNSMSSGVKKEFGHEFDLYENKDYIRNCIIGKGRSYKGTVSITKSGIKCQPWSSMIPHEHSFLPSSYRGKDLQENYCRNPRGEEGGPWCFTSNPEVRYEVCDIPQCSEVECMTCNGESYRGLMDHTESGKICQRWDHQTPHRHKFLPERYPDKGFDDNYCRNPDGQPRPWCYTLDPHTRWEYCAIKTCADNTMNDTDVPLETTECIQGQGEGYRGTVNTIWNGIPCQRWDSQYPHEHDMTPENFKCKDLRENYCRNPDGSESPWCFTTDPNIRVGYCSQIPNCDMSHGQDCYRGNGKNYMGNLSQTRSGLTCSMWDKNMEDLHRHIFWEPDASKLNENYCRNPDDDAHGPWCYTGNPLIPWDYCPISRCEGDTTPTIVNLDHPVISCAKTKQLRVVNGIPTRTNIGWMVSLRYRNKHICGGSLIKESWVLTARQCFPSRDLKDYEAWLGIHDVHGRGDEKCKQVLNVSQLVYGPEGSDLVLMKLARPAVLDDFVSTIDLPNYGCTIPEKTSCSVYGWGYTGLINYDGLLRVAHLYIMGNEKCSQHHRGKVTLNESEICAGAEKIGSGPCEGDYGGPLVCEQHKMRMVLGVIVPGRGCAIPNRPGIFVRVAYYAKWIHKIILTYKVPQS

PlGF (Placental GF) = target: T3, PlGF (Placental GF) (UniProt P49763-2 21-149, limits assumed); experiment: SPR (Biacore); parent antibody
T3 sequence (looked up): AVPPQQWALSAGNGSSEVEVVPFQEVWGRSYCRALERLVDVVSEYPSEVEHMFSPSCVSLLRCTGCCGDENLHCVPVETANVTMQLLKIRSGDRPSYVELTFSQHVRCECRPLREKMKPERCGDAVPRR

[4] = target: T1, VEGF (VEGF 1-165 aa, R&D Systems …); experiment: Direct bind ELISA, VEGF coated on plate; VEGF domain C-term., HC short/LC short

T1 sequence (P15692 other isoform, or with tags, fused parts or gaps limits assumed): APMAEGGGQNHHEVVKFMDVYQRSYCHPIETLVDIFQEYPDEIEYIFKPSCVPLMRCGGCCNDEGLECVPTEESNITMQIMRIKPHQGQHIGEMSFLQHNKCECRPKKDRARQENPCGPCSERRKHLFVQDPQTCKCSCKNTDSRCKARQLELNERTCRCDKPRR

B1: DVD519 (bispecific antibody, human IgG1, kappa, lambda)
heavy: not shown
light: QAVVTQESALTTSPGETVTLTCRSSTGAVTTSNYANWVQEKPDHLFTGLIGGTNNRAPGVPARFSGSLIGDKAALTITGAQTEDEAIYFCALWYSNHWVFGGGTKLTVLGQPKAAPSVTLFPPDIQMTQSPSSLSASVGDRVTITCRASQDVSTAVAWYQQKPGKAPKLLIYSASFLYSGVPSRFSGSGSGTDFTLTISSLQPEDFATYYCQQSYTTPPTFGQGTKVEIKRTVAAPSVFIFPPSDEQLKSGTASVVCLLNNFYPREAKVQWKVDNALQSGNSQESVTEQDSKDSTYSLSSTLTLSKADYEKHKVYACEVTHQGLSSPVTKSFNRGEC
notes: DVD-Ig; N-term; AB073 (DLL4), C-term; AB070 (VEGF); HC linker long, LC linker long; also called DVD-Ig DVD519; DVD519H/DVD519L
EC50 [1]: 77.2 nM

EC50 [2]: 8.42 nM
B2: DVD492 (bispecific antibody, human IgG1, kappa)
heavy: not shown
light: DIQMTQSPSSLSASVGDRVTITCRASQVIRRSLAWYQQKPGKAPKLLIYAASNLASGVPSRFSGSGSGTDFTLTISSLQPEDFATYYCQQSNTSPLTFGQGTKVEIKRTVAAPDIQMTQSSSYLSVSLGGRVTITCKASDHINNWLAWYQQKPGNAPRLLISGATSLETGVPSRFSGSGSGKDYTLSITSLQTEDVATYYCQQYWSIPLTFGAGTKLELKRTVAAPSVFIFPPSDEQLKSGTASVVCLLNNFYPREAKVQWKVDNALQSGNSQESVTEQDSKDSTYSLSSTLTLSKADYEKHKVYACEVTHQGLSSPVTKSFNRGEC
notes: DVD-Ig; N-term; AB071 (VEGF), C-term; AB072 (DLL4); HC linker short, LC linker short; also called DVD-Ig DVD492; DVD492H/DVD492L

Kd [3]: 2.67 nM
koff [3]: 0.00039 s⁻¹
kon [3]: 147000 M⁻¹ s⁻¹
B3: AB016 (antibody, human IgG1, kappa, V domains shown)
VH: EVQLVESGGGLVQPGGSLRLSCAASGFSFSSEPISWVRQAPGKGLEWVSSITGKNGYTYYADSVKGRFTISADTSKNTAYLQMNSLRAEDTAVYYCARWGKKVYGMDVWGQGTLVTVSS
VL: DIQMTQSPSSLSASVGDRVTITCRASQSISSYLAWYQQKPGKAPKLLIYGASSRASGVPSRFSGSGSGTDFTLTISSLQPEDFATYYCQQYMSVPITFGQGTKVEIKR
notes: also called AB016VH; AB016VL

IC50 (recombinant human HGF): 8.7 nM
B4: DVD033 (RON (seq. 1) N-terminal / HGF (seq. 1) C-terminal DVD-Ig) (bispecific antibody, human IgG1, kappa)
heavy: not shown
light: DVVMTQSPLSLPVTPGEPASISCRSSQSLLHSNGFNYVDWYLQKPGQSPHLLIYFGSYRASGVPDRFSGSGSGTDFTLKISRVEAEDVGVYYCMQALQTPPWTFGQGTKVEIRRTVAAPDIQMTQSPSSVSASVGDRVTITCRASQGISSWLAWYQQKPGKAPNLLIYEASSLQSGVPSRFGGSGSGTDFTLTISSLQPEDFATYYCQQANGFPWTFGQGTKVEIKRTVAAPSVFIFPPSDEQLKSGTASVVCLLNNFYPREAKVQWKVDNALQSGNSQESVTEQDSKDSTYSLSSTLTLSKADYEKHKVYACEVTHQGLSSPVTKSFNRGEC
notes: also called DVD033H/DVD033L

IC50 (recombinant human HGF): 0.34 nM
B5: DVD034 (HGF (seq. 1) N-terminal / RON (seq. 1) C-terminal DVD-Ig) (bispecific antibody, human IgG1, kappa)
heavy: not shown
light: DIQMTQSPSSVSASVGDRVTITCRASQGISSWLAWYQQKPGKAPNLLIYEASSLQSGVPSRFGGSGSGTDFTLTISSLQPEDFATYYCQQANGFPWTFGQGTKVEIKRTVAAPDVVMTQSPLSLPVTPGEPASISCRSSQSLLHSNGFNYVDWYLQKPGQSPHLLIYFGSYRASGVPDRFSGSGSGTDFTLKISRVEAEDVGVYYCMQALQTPPWTFGQGTKVEIRRTVAAPSVFIFPPSDEQLKSGTASVVCLLNNFYPREAKVQWKVDNALQSGNSQESVTEQDSKDSTYSLSSTLTLSKADYEKHKVYACEVTHQGLSSPVTKSFNRGEC
notes: also called DVD034H/DVD034L

Kd (PlGF (Placental GF)): 0.0285 nM
koff (PlGF (Placental GF)): 0.000108 s⁻¹
kon (PlGF (Placental GF)): 3.8e+06 M⁻¹ s⁻¹
B6: AB047 (antibody, human IgG1, kappa, V domains shown)
VH: QVQLQQSGAELVKPGASVKISCKASGYTFTDYYINWVKLAPGQGLEWIGWIYPGSGNTKYNEKFKGKATLTIDTSSSTAYMQLSSLTSEDTAVYFCVRDSPFFDYWGQGTLLTVSS
VL: DIVLTQSPDSLAVSLGERVTMNCKSSQSLLNSGMRKSFLAWYQQKPGQSPKLLIYWASTRESGVPDRFTGSGSGTDFTLTISSVQAEDVAVYYCKQSYHLFTFGSGTKLEIKR
notes: also called AB047VH; AB047VL

EC50 [4]: 181 nM
B7: DVD489 (bispecific antibody, human IgG1, kappa, L234A L235A)
heavy: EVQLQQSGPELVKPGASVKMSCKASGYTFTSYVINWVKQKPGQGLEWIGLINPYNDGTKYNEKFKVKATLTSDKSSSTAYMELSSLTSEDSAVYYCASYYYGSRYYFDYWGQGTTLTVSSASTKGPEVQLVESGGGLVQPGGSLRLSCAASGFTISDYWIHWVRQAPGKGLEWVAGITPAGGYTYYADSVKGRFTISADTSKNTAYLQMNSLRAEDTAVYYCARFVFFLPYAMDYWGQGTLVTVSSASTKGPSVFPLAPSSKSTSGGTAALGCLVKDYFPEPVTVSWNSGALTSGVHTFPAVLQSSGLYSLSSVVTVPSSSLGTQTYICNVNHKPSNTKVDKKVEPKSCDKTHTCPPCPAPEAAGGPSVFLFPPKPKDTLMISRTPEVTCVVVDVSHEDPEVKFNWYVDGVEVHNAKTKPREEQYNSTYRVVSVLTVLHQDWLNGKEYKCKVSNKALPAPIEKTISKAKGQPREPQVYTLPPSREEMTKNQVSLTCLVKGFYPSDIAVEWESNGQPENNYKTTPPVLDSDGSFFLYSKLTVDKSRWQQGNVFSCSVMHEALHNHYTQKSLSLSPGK
light: DIQMTQSSSYLSVSLGGRVTITCKASDHINNWLAWYQQKPGNAPRLLISGATSLETGVPSRFSGSGSGKDYTLSITSLQTEDVATYYCQQYWSIPLTFGAGTKLELKRTVAAPDIQMTQSPSSLSASVGDRVTITCRASQDVSTAVAWYQQKPGKAPKLLIYSASFLYSGVPSRFSGSGSGTDFTLTISSLQPEDFATYYCQQSYTTPPTFGQGTKVEIKRTVAAPSVFIFPPSDEQLKSGTASVVCLLNNFYPREAKVQWKVDNALQSGNSQESVTEQDSKDSTYSLSSTLTLSKADYEKHKVYACEVTHQGLSSPVTKSFNRGEC
notes: DVD-Ig; N-term; AB072 (DLL4), C-term; AB070 (VEGF); HC linker short, LC linker short; also called DVD-Ig DVD489; DVD489H/DVD489L
